Data from patent EP4806514A2 (Lepu Biopharma Co., Ltd., dated 2025).
Changes are numbered by the printed parent chain.

T1: hCDH17-his (full length extracellular domain of human CDH17, Q23-M787, his tag at the C-terminal) (human, UniProt Q12864 23-787)
T1 construct: Limits of the construct (UniProt Q12864, Q23-M787, C-terminal his tag); also called human CDH17-his protein; human CDH17 protein
T1 sequence: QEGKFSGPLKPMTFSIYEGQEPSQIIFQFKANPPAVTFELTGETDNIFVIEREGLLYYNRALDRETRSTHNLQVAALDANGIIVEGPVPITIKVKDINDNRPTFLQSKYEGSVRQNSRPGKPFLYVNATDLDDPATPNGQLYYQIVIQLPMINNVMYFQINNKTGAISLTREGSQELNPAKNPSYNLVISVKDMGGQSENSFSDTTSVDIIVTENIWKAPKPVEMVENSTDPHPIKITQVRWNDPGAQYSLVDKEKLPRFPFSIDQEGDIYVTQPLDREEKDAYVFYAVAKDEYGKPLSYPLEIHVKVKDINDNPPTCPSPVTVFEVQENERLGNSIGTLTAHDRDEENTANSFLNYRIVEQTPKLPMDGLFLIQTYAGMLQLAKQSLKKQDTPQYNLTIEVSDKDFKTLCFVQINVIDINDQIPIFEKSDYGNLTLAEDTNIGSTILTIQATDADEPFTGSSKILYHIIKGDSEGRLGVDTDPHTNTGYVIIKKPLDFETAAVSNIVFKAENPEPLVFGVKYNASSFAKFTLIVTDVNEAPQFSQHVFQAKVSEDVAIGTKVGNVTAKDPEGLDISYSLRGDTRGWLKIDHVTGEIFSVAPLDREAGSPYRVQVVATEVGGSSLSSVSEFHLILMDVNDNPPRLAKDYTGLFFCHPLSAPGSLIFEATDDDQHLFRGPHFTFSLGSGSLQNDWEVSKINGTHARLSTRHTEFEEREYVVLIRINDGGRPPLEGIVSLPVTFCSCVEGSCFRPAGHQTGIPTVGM

T2: human CDH17, full length, expressed on cells (HEK293-hCDH17); AsPC-1, HCT-8, AGS, LoVo, KATO III, HT-29 tumor … (human, UniProt Q12864 23-832)
T2 construct: also called human CDH17 expressed on tumor cells
T2 sequence: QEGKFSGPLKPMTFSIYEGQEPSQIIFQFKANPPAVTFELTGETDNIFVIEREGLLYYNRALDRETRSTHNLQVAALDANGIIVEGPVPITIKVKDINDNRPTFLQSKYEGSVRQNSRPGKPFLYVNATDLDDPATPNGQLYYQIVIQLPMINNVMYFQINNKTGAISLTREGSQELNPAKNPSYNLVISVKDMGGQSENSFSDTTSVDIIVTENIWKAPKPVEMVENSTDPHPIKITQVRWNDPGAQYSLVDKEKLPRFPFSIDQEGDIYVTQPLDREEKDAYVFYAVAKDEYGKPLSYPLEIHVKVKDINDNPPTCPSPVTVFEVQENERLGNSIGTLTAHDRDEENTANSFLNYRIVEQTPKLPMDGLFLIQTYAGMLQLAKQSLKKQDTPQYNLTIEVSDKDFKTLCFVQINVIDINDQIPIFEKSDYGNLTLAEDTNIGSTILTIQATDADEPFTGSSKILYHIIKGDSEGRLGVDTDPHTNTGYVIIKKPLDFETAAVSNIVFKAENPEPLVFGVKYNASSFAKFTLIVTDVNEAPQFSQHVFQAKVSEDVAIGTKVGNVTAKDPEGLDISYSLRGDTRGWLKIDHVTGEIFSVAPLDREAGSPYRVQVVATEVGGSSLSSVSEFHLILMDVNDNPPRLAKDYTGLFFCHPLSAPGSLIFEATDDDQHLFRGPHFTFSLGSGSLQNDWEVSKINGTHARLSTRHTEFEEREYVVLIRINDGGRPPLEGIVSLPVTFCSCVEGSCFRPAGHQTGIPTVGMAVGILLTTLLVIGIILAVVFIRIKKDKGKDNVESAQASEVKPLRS

T3: human CDH16 protein (hCDH16-his, Novoprotein, Cat. No. CJ16) (human, UniProt O75309 19-786)
T3 construct: Bought; also called human CDH16-his
T3 sequence (looked up): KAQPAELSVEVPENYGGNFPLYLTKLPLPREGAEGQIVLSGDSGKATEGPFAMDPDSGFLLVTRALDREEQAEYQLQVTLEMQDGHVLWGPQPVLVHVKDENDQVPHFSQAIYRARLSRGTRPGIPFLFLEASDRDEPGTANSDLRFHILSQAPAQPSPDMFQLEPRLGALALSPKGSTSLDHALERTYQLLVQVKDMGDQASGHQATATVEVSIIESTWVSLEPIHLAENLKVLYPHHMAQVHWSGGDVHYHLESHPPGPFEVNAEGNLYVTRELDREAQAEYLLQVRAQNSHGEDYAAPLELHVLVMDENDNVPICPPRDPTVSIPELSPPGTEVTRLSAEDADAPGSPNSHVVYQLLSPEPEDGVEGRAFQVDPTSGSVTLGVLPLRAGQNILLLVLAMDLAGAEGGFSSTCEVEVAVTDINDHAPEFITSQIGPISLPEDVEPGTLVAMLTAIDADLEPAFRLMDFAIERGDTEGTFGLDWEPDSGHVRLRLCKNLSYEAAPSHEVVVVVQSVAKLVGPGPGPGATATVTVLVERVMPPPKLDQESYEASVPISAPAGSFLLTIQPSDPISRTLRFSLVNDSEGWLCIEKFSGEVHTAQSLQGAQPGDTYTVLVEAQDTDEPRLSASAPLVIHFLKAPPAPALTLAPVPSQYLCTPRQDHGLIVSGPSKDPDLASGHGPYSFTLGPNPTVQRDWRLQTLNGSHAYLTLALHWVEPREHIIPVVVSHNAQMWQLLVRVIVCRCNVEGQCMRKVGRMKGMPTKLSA

B1: 155B11C6-z3 (antibody, V domains shown)
VH: QVQLVQSGAEVKKPGASVKVSCKASGYTFTSYTMHWVRQAPGQGLEWMGYIDPKSDYNYYNQKFKDRVTMTRDTSISTAYMELSRLRSDDTAVYYCARGFFKGYFDVWGQGTTVTVSS
VL: EIVLTQSPGTLSLSPGERATLSCSVSSSISSSNLHWYQQKPGQAPRPWIYGTSNLASGVPDRFSGSGSGTDYTLTISRLEPEDFAVYYCQQWTSYPFTFGQGTKLEIK
notes: Humanized, human IgG1 constant region; also called 155B11C6 HU-VH1-0 / HU-VL1-2
B2: 155B11C6-z7 (antibody, V domains shown)
VH: B1 VH with M48I, V68A, M70L
VL: B1 VL
notes: Humanized, human IgG1 constant region; also called 155B11C6 HU-VH1-2 / HU-VL1-2
B3: 155B11C6-z4 (antibody, V domains shown)
VH: B1 VH
VL: B1 VL with A44S, D71S
notes: Humanized, human IgG1 constant region; also called 155B11C6 HU-VH1-0 / HU-VL1-3
B4: 29H8D3-z3 (antibody, V domains shown)
VH: QVQLVQSGAEVKKPGASVKVSCKASGYTFTDHTIHWVRQAPGQGLEWMGYIYPRDGYTKYNEKFKDRVTMTTDTSTSTAYMELRSLRSDDTAVYYCARFYYGYWYFDVWGQGTTVTVSS
VL: DIVMTQSPLSLPVTPGEPASISCRSSKSLLRSNGNTYLYWFLQKPGQSPQVLIYRMSNLASGVPDRFSGSGSGTDFTLKISRVEAEDVGVYYCMQHLEYPFTFGQGTKLEIK
notes: Humanized variable regions fused to human IgG1 constant region
B5: 29H8D3-z9 (antibody, V domains shown)
VH: B4 VH with V37M, M48I, V68A
VL: B4 VL
notes: Humanized, human IgG1 constant region
B6: 29H8D3-z6 (antibody, V domains shown)
VH: B4 VH with M48I, V68A
VL: B4 VL
notes: as for B5
B7: 152A1D12-z17 (antibody, V domains shown)
VH: QVQLVQSGAEVKKPGASVKVSCKASGYTFTDYNMHWVKQAPGQRLEWIGYIYRNNGYNGYNQKFKNKATLTVDTSASTAYMELSSLRSEDTAVYYCARNYWRGAMDYWGQGTTVTVSS
VL: EIVLTQSPATLSLSPGERATLSCSASSSISYMHWYQQKPGQAPRLLIYDTSKLASGIPARFSGSGSGTDFTLTISSLEPEDFAVYYCHQRSSYPWTFGGGTKVEIK
notes: Humanized, human IgG1 constant region; also called 152A1D12 HU-VH1-3 / HU-VL2-0
B8: 152A1D12-z18 (antibody, V domains shown)
VH: B7 VH
VL: B7 VL with L46W, I57V
notes: Humanized, human IgG1 constant region; also called 152A1D12 HU-VH1-3 / HU-VL2-1
B9: 152A1D12-z13 (antibody, V domains shown)
VH: B7 VH
VL: B7 VL with Q41K, R44K, I57V, A59S, E78Q, V84T
notes: Humanized, human IgG1 constant region; also called 152A1D12 HU-VH1-3 / HU-VL1-0
B10: 134C7B1 chimeric mAb (antibody, V domains shown)
VH: AVQLQQSGPELLKPGASVKISCKASGYTFTDYTMHWVKQSHGKSLEWIGGINPNYGGTSYNETFKDKATLTVDKSSNTAYMELRSLTSEDSAVYYCARIPYGSYPMDYWGQGTSVTVSS
VL: DIVMSQSPSSLTVSVGEKVTMSCKSSQSLLYSSNQKIYLAWYQQKPGQSPKLLISWASTRESGVPDRFTGSGSGTDFTLTISSVKAEDLADYYCQQYYRYRTFGGGTKLEIK
notes: Mouse variable regions fused to human IgG1 constant region
B11: 143H10E4 chimeric mAb (antibody, V domains shown)
VH: QVQLQQSDAELVKPGASVKISCKASGSTFTDHTIHWVKQRPEQGLEWIGYIYPVYGYTQNNEKFKGKATLTADKSSSTAYMQLNSLTSEDSAVYFCARSRDSNPYYFDYWGQGTTLTVSS
VL: EIVLTQSPALMAASPGEKVTITCTVSSSISSSNLHWYQQKSGTSPKPWIYGTSNLASGVPVRFSGSGSGTSYSLTISSMEAEDAATYYCQQWSSYPFTFGSGTKLKMK
notes: as for B10
B12: 155B11C6 chimeric mAb (antibody, V domains shown)
VH: QVQLQQSGAELARPGASVKMSCKASGYTFTSYTMHWVKQRPGQGLEWIGYIDPKSDYNYYNQKFKDKATLTADKSSSTAYMQLSGLTSEDSTVYYCARGFFKGYFDVWGAGTTVTVSS
VL: B11 VL with A9P, T24S, G42E, V61I, S93T, S101A, K106E, M107L
notes: as for B10
B13: 152A1D12 chimeric mAb (antibody, V domains shown)
VH: EVQLQQSGPELVKPGASVKISCKASGYTFTDYNMHWVKQSHGKSLEWIGYIYRNNGYNGYNQKFKNKATLTVDSSSSTAYMELRSLTSEDSAVYYCARNYWRGAMDYWGQGTSVTVSS
VL: QIVLTQSPAIMSASPGEKVTMTCSASSSISYMHWYQQKPGTSPKRWIYDTSKLASGVPARFSGSGSGTSYSLTISSMEAEDAGTYYCHQRSSYPWTFGGGTKLEIK
notes: as for B10

biological target: T1, hCDH17-his (full length extracellular …); assay: SPR (Biacore 8K), antibody captured on Protein A chip, hCDH17-his injected

Row | binding result | Binder
1 | binds | B1
2 | binds | B2
3 | binds | B3
4 | binds | B4
5 | binds | B5
6 | binds | B6
7 | binds | B7
8 | binds | B8
9 | binds | B9

biological target: T2, human CDH17, full length, expressed on …; assay: flow cytometry, AsPC-1 cells

Row | binding result | Binder
10 | binds | B4
11 | binds | B5
12 | binds | B6

biological target: T1, hCDH17-his (full length extracellular …); assay: ELISA, hCDH17-his coated at 2 ug/mL

Row | binding result | Binder
13 | binds | B10
14 | binds | B11
15 | binds | B12
16 | binds | B13

biological target: T2, human CDH17, full length, expressed on …; assay: flow cytometry, HEK293-hCDH17 cells

Row | binding result | Binder
17 | binds | B10
18 | binds | B11
19 | binds | B12
20 | binds | B13

biological target: T3, human CDH16 protein (hCDH16-his, …); assay: ELISA, hCDH16-his coated at 1 ug/mL

Row | Binder | binding result
21 | B10 | no binding (tested: titrated from 100 nM)
22 | B11 | no binding (tested: titrated from 100 nM)
23 | B12 | no binding (tested: titrated from 100 nM)
24 | B13 | no binding (tested: titrated from 100 nM)

biological target: T2, human CDH17, full length, expressed on …; assay: flow cytometry, AGS cells

Row | binding result | Binder
25 | binds | B1
26 | binds | B2
27 | binds | B3
28 | binds | B7
29 | binds | B8
30 | binds | B9
